Measurements taken from the DeepSol protein solubility set.

Test: soluble on expression in E. coli; label from the status in PepcDB or PDB records

Row | Sequence | soluble on expression in E. coli
1 | MIREDEVRKLVGEMREPFLQRPLGELDAVKEIKIKPEKRHISVKVALAKTGTAEQMQIQQEIVNVLKGAGAETVGLRFEELPEETVAKFRAPSAEKKTLLNMDNPPVFLAVASGKGGVGKSTVSVNLAISLARLGKKVGLIDADIYGFSVPDMMGITVRPTIEGEKLLPVERFGVKVMSMGFFVEENAPVVWRGPMLGKMLNNFFHEVEWGEVDYIVLDLPPGTGDVALDVHTMLPSCKEIIVSTPHPTAAFVAARAGSMAIKTDHEVVGVIENMAYYESAKTGEREYVFGKGGGDKLAEELNVPLLGRIPLKQPDWDKDQFAPSVYDENHPIGEIYQDIAKKIDAKMSVQVLEHHHHHH | soluble
2 | GSSHHHHHHMGNVFDYEDIQLIPAKCIVNSRSECDTTVTLGKHKFKLPVVPANMQTIIDERIATYLAENNYFYIMHRFQPEKRISFIRDMQSRGLIASISVGVKEDEYEFVQQLAAEHLTPEYITIDIAHGHSNAVINMIQHIKKHLPESFVIAGNVGTPEAVRELENAGADATKVGIGPGKVCITKIKTGFGTGGWQLAALRWCAKAASKPIIADGGIRTNGDVAKSIRFGATMVMIGSLFAGHEESPGETIEKDGKLYKEYFGSASEFQKGEKKNVEGKKMFVEHKGSLEDTLIEMEQDLQSSISYAGGTKLDSIRTVDYVVVKNSIFNGDKVY | soluble
3 | MAKKRGKPEIDWTDDDKEIIWVSKSEIKRDSEHLKKLGAELIELTPQNLEKIPLDEDLKYAIRQAQSFKLEARRRQIQFIGKLLRNRDSAPIQDALDKVKNRHNQQQALLHKLELIRDQLINMGDASLNQLLSEYPQLDRQHLRNLIRMAQKEKQINKPAKNYHEILQYLKSELIV | not soluble
4 | MSADNLLLDFTSPGAIPPDPAEVVRRVVDETQTTMRALESLLENERIEDMTGWRLLAMFYLATDRLNDLAKIEKQYKSITGVSLSADLKQKYPQWFNGEAVSHPVVFEIPKKITAAALPDSIIIQRGQCSPGGILLDFSQVQEIDNDGLKKLAQLFSSLAQENTRPKLRQADRFITCLQNKAETGTGTRAIWDVLFAYERFRDDREAFEEKAIKFAVLYGISPPSWE | not soluble
5 | GPGSMVFFGVGATGGTGCGPKQACFPWLENSSATRCQRGGRINLRFMLDLPQGDTEAPSTNQKRAVYAFCPIVDELQVFTLKGAGRVSSLLQKTSSSGQASITPNPAPRYLSVFGFGRSGQKEYPERDVSNSTVVIAMRDIGLCNSPDSVAIVNMVILTIGMHDGKFNYISSDADTKEPDDSESGIPSGNSSGTGSPMESVQPAMVGFRPTCDESDHCIFSPTSPCVGPIRGMKNCGACYNTPDDIEGASIQVWTSYQGTDLERQPLLSGGMDPMGFRKFAGGKFVGNIKYAVSKIENTASGMMPGDETNSTP | not soluble
6 | MGSDKIHHHHHHMTDNQLLMQEALEWKMHFLRKDSMFERFSKRVQTKVNERIPEKIHTVVTESVKKMVEATMAGSNIITYKKDTSALSLSEKNELAKKTIVSYQKVAAAEGVGTGAGGIFLSIADFPLLLSIKMKCLFTLSSIYGFDVKDAQERIFLLLVFQLAFSSDDGRKSLFSVIENWETEKKSIDWRVFQQEYRDYIDVVKLFQLLPGVGAAVGGIANYKLLAQLGETARHVFHLRILKETAGE | not soluble
7 | MNEYKKEIKISVRNLVEFVLRTGDIDSSFTGSSRAVEGTRLHKKIQKTQGKEYSPEVFLKTTVEFDDFFLTVEGRADGVINEDGCFIIDEIKTTTAPLELIDEFYNPLHWAQAKCYAYIHALNENLEKIKIRLTYCHLETEEIKYLVSEFDFAELSRFFEELVEKYYVWAKLACDWQVKRDCSIKVLEFPFEKYRKGQRKLAVAVYKTVTEGKKLYVKAPTGIGKTISTLFPAVKAIGEGHASKIFYLTAKTVTGGVAKEAFAKMRQKGLLFKTVTLTAKEKICFMEKAVCKPEKCEYAKGHFDRVNEAIMDILTNEDEIKREVIEEYAKAHRVCPFELALDLTIWADAVICDYNYVFDPRVYLKRFFSDAGGDYIFLVDEAHNLVDRAREMFSAQLSKKSFLELKKAMKEESPKISKTLQKLNTFMLGMKKLCGDNDYFVSKEEQSEIYLLLRRLIGECEEYLTDRAKNGIENEDLLQLYFDALMYVRIAEFYDDRYVTFVEKSDNDVRIKLFCIDPSHLLSEALKRGKAAVFFSATLLPLSYFKEVLGGGPDDYTMCLDSPFEVNNRCLMIADRISTRYQDRGKSCDEVVQCIKSIVCAKKGNYIAFFPSYQYMNMIYELFEKECGDIKLYVQSSSMTEKEREDFLERFKADPQETVLGFCVLGGIFSEGIDLRDDRLIGAIIVGVGLPQICIERDIIRDYYQNKNRLGFEYSYMYPGMNKVMQAAGRVIRSENDKGVILLIDDRFTNPSYLALFPNEWFPYIRVTGNNISEHVKKFWSRHGA | soluble
8 | MGSDKIHHHHHHMKIDLNADLGEGCASDAELLTLVSSANIACGFHAGDAQIMQACVREAIKNGVAIGAHPSFPDRENFGRSAMQLPPETVYAQTLYQIGALATIARAQGGVMRHVKPHGMLYNQAAKEAQLADAIARAVYACDPALILVGLAGSELIRAGKQYGLTTREEVFADRGYQADGSLVPRSQSGALIENEEQALAQTLEMVQHGRVKSITGEWATVAAQTVCLHGDGEHALAFARRLRSAFAEKGIVVAA | not soluble
9 | SMTTNVGDSTLADLLDHSCTSGSGSGLPFLVQRTVARQITLLECVGKGRYGEVWRGSWQGENVAVKIFSSRDEKSWFRETELYNTVMLRHENILGFIASDMTSRHSSTQLWLITHYHEMGSLYDYLQLTTLDTVSCLRIVLSIASGLAHLHIEIFGTQGKPAIAHRDLKSKNILVKKNGQCCIADLGLAVMHSQSTNQLDVGNNPRVGTKRYMAPEVLDETIQVDCFDSYKRVDIWAFGLVLWEVARRMVSNGIVEDYKPPFYDVVPNDPSFEDMRKVVCVDQQRPNIPNRWFSDPTLTSLAKLMKECWYQNPSARLTALRIKKTLTKID | soluble
10 | MGSDKIHHHHHHLNTRDFEYFLALTQTRNFSQTAEQFAVSQPTITTAIKRLEDSFQAQLIIRDRRHHDIGVTSAGKQLAAHAQVILQQLTLAQQEIAWDQTNKIRFGLPPIIGNYFFPKIAPQLIAAGLMPQLQTVEAGSAALLNQIKQGDLDFALLGASGPLQEPDLTISQIGTAPFVIITSESDPLAQKDKVRFAELAMQKFVTLSEAFVHTRAFTWFQQQSAFIPNVVYQTGDVQLLKQMVVQNVGIGFLTNLAINPDDHLAAVKLTDPKQPVFTISIVRRKDRVLTPAMQHFNQILAAN | not soluble
11 | MIREFSEDDIEPLATGAWILGTGGGGNPYISTLNLRRLYAEGRRVKVMDPMALADDDMVAVVSKMGAPLVGQERLGDPAHLARAVEVMEDYLGKPFRAIMSVEIGGSNALSSFLAAAVLDRPVVNADAMGRAYPEAQMTSFAIGNLPMFPLSLVDVRDNEVIVTRAASWKWMERISRKVCTEVGSTAATCKAPRTGKEVKEWGIHYTVTKATELGRAVMEARARHDDPVQAVLDHEGGKQLFRGKVVDVARETTGGFLRGSTTIEGIDADRGSRMELAFQNEWAVAFRDGQPVAMTPDLLCLLDTVSGGAIGTESVRYGQRVTVVALPAPELLTTPAGIDAVGPRAFGYDIDFRSVFPLEHHHHHH | soluble
12 | TTSMIQISDAVGYLIRPLKIFKLPVDDIVLTLSIALRFIPTMLQEISTISDAQKARGSSLNSRSIAKKIKAIVPILMPLFIASVRRAEDLATAMIMRGYSDGKNRTKFRIMK | not soluble
13 | MGSDKIHHHHHHMSIHPALESVGQLFGANLIFRVPRYQRYYAWDAEQIGDFLADLELCLKARAGGNRREHFFGGLVTVRTDVEGSSRQNMEVIDGQQRLASFSMLAAQLRNAAVQLAESVDAAVPDNPKEFLLEFAKTLKAEFERYKDKIKLQVVEIDRLELSKPDLIFFKDLVEGRNPTPSRMSHRLLKQAWDRIGAKLAQIVASENTDVEKAQALSLVDTVMEEDWNPHPHDH | not soluble
14 | MTKRKNASNAGSSPKKEKKSETFAALKSVKAEKRPAADSSDSEPEDFEEEQITHTEAEETRNEDNGQAIYEPDVMRPLIESFLEFLVQRQSETSTVHNMENKVAEWAETRRDDNIDAGLFVLDFRKYLKSAVKFKNLQMNDSCAAISTYLNSEKSLVEYKSMPDRPPTKIQLYIKKHQIMLKGIGGEPMKNAYKAMNADTEGAKELDELLREASLQYIPQLQEFLDTHPNLTEEQKRSIVNKMKMLNKKYNSKEISSTPKKRSSKKDPETAFSLFCRTKNDKYRDLSDEEREIKLQKKFEKLPAAQKDIYESLAISM | soluble
15 | LEKNDLVYMQRAFELNDKVAKDIMIDRTQLVVIDITSTVKEALNVYLQERFSRLPVVADNDKDKVLGYVYNYDLTRQQQVDSSVRVDKLIRDISTTPETTPITQVLQQMIKKRTPIVVVVDEYGGTSGIITDKDIYEEL | not soluble
16 | MVAVSFGAAFRETLEGSGNPQDEFEKLEFEEAYWPELYTTRGPEDDEIYQPFIGPWDYETDLPELHETQGPEDNEVYQPFPGPCFP | not soluble
17 | MMSNRSDFIVPDEAAVKRAASVNFHLEPLRPWLDDPQITEVCVNRPGEVFCERASAWEYYAVPNLDYEHLISLGTATARFVDQDISDSRPVLSAILPMGERIQIVRPPACEHGTISVTIRKPSFTRRTLEDYAQQGFFKHVRPMSKSLTPFEQELLALKEAGDYMSFLRRAVQLERVIVVAGETGSGKTTLMKALMQEIPFDQRLITIEDVPELFLPDHPNHVHLFYPSEAKEEENAPVTAATLLRSCLRMKPTRILLAELRGGEAYDFINVAASGHGGSITSCHAGSCELTFERLALMVLQNRQGRQLPYEIIRRLLYLVVDVVVHVHNGVHDGTGRHISEVWYDPNTKRALSLQHSEKT | soluble
18 | MGSDKIHHHHHHMKILIKQDFDTMSEWAKMLLLSTMSQDKRVNLSITAGKTPALVYQKLASIVKNSSDFDNVHYYNFDEIPVPHQKEGITLTDLRTLYLTPAEISEQNIHPLTVENFQQQEQRIADAGGLDLMLIGLGADGHFCGNMPTTTHFKNETYQVTVTGSEPWFVPEMMQPGMTFVTMGPASIMKVKHLVLIVNGEQKAQMVKQVLQGPVTETYPASILQLHPNLTVLLDEAAASQLEK | not soluble
19 | AEPAGRQRPRREPEAMDEQSVESIAEVFRCFICMEKLRDARLCPHCSKLCCFSCIRRWLTEQRAQCPHCRAPLQLRELVNCRWAEEVTQQLDTLQLCSLTKHEENEKDKCENHHEKLSVFCWTCKKCICHQCALWGGMHGGHTFKPLAEIYEQHVTKVNEEVAKLRRRLMELISLVQEVERNVEAVRNAKDERVREIRNAVEMMIARLDTQLKNKLITLMGQKTSLTQETELLESLLQEVEHQLRSCSKSELISKSSEILMMFQQVHRKPMASFVTTPVPPDFTSELVPSYDSATFVLENFSTLRQRADPVYSPPLQVSGLCWRLKVYPDGNGVVRGYYLSVFLELSAGLPETSKYEYRVEMVHQSCNDPTKNIIREFASDFEVGECWGYNRFFRLDLLANEGYLNPQNDTVILRFQVRSPTFFQKSRDQHWYITQLEAAQTSYIQQINNLKERLTIELSRTQKSRDLSPPDNHLSPQNDDALETRAKKSACSDMLLEGGPTTASVREAKEDEEDEEKIQNEDYHHELSDGDLDLDLVYEDEVNQLDGSSSSASSTATSNTEENDIDEETMSGENDVEYNNMELEEGELMEDAAAAGPAGSSHGYVGSSSRISRRTHLCSAATSSLLDIDPLILIHLLDLKDRSSIENLWGLQPRPPASLLQPTASYSRKDKDQRKQQAMWRVPSDLKMLKRLKTQMAEVRCMKTDVKNTLSEIKSSSAASGDMQTSLFSADQAALAACGTENSGRLQDLGMELLAKSSVANCYIRNSTNKKSNSPKPARSSVAGSLSLRRAVDPGENSRSKGDCQTLSEGSPGSSQSGSRHSSPRALIHGSIGDILPKTEDRQCKALDSDAVVVAVFSGLPAVEKRRKMVTLGANAKGGHLEGLQMTDLENNSETGELQPVLPEGASAAPEEGMSSDSDIECDTENEEQEEHTSVGGFHDSFMVMTQPPDEDTHSSFPDGEQIGPEDLSFNTDENSGR | soluble
